According to US20260209386A1 (MYTHIC THERAPEUTICS, published 2026):

T1: Human PTK7 Protein, His Tag, Acro Biosystems (human, UniProt Q13308 31-704)
T1 construct: Bought recombinant protein; also called CCK4; not shown: His tag
T1 sequence: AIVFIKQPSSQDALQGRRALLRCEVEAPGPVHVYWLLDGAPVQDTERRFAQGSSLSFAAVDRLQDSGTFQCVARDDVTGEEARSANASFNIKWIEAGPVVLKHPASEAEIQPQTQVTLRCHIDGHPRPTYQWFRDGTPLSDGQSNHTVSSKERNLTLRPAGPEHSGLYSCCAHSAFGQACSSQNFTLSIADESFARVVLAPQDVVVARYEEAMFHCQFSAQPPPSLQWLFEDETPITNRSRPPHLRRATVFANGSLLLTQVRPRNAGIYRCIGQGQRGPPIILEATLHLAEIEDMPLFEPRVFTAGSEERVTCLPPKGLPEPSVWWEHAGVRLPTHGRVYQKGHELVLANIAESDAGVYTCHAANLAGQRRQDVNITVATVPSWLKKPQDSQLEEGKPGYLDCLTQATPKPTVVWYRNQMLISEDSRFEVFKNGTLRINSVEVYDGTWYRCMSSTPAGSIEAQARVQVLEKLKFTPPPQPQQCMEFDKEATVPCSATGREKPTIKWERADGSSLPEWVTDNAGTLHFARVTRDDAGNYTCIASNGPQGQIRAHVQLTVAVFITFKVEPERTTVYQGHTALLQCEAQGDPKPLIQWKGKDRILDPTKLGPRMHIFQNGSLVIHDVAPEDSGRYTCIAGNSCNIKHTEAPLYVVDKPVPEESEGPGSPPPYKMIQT

T2: Human PTK7/CCK4 Protein, His Tag, Acro Biosystems PT7-H52H3 (human, UniProt Q13308 31-704)
T2 construct: bought protein; also called Human PTK7 Protein, His Tag, Acro Biosystems; not shown: His tag
T2 sequence: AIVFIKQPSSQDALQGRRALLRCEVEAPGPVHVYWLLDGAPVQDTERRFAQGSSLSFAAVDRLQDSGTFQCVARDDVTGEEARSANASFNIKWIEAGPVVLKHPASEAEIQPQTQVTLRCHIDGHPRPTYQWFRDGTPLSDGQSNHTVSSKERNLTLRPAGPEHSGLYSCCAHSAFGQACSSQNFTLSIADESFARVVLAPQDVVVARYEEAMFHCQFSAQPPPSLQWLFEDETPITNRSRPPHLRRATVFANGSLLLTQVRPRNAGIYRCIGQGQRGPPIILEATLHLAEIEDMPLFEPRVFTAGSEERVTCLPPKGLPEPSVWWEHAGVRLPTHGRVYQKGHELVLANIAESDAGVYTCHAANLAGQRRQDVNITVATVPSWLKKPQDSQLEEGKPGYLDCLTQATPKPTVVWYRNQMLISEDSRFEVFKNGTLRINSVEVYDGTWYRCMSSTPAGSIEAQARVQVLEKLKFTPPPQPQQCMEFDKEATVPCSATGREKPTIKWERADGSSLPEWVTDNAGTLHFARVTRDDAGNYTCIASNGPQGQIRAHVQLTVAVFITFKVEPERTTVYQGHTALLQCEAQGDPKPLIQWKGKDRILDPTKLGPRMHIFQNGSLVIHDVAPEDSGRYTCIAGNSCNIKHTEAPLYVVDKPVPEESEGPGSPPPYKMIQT


What was measured:
[1] = biological target: T1, Human PTK7 Protein, His Tag, Acro …; experiment: BLI, anti-human Fc capture, 50 nM PTK7; 1 = pH dependent binding relative to parent
[2] = biological target: T2, Human PTK7/CCK4 Protein, His Tag, Acro …; experiment: BLI, antibody on anti-human Fc sensor

Binder | binding result [1] | binding result [2]
MYT11163 (antibody, V domains shown, MYT9412 LC variant) VH: EVQLVESGGGLVQPGGSLRLSCTASGFSLSTYAMSWVRQAPGKGLEWVGMIYINDNTYYASWAKGRFTISRDTSKNTVYLQMNSLRAEDTAVYFCARDIGISYYIGVSLWGQGTLVTVSS VL: EIVMTQSPSTLSASVGDRVIITCQASQSIGTRLSWYQQKPGKAPKLLIYGASKLATGVPSRFSGSGSGAEFTLTISSLQPDDFATYYCHGEYSYTTTDGIAFGQGTKLTVL | binds | 
MYT11144 (antibody, V domains shown, MYT9412 HC alanine variant) VH: EVQLVESGGGLVQPGGSLRLSCTASGFSLSTYAMSWVRQAPGKGLEWVGMIYINDNTYYASWAKGRFTISRDTSKNTVYLQMNSLRAEDTAVYFCARAIGISYYIGVSLWGQGTLVTVSS VL: EIVMTQSPSTLSASVGDRVIITCQASQSIGTRLSWYQQKPGKAPKLLIYGASKLATGVPSRFSGSGSGAEFTLTISSLQPDDFATYYCLGEYSYTTTDGIAFGQGTKLTVL | binds | 
MYT11177 (antibody, V domains shown, MYT9412 LC alanine variant) VH: EVQLVESGGGLVQPGGSLRLSCTASGFSLSTYAMSWVRQAPGKGLEWVGMIYINDNTYYASWAKGRFTISRDTSKNTVYLQMNSLRAEDTAVYFCARDIGISYYIGVSLWGQGTLVTVSS VL: EIVMTQSPSTLSASVGDRVIITCQASQSIGTRLSWYQQKPGKAPKLLIYGASKLATGVPSRFSGSGSGAEFTLTISSLQPDDFATYYCLGEYSYTTTAGIAFGQGTKLTVL | binds | 
MYT11146 (antibody, V domains shown, MYT9412 LC variant) VH: EVQLVESGGGLVQPGGSLRLSCTASGFSLSTYAMSWVRQAPGKGLEWVGMIYINDNTYYASWAKGRFTISRDTSKNTVYLQMNSLRAEDTAVYFCARDIGISYYIGVSLWGQGTLVTVSS VL: EIVMTQSPSTLSASVGDRVIITCQHSQSIGTRLSWYQQKPGKAPKLLIYGASKLATGVPSRFSGSGSGAEFTLTISSLQPDDFATYYCLGEYSYTTTDGIAFGQGTKLTVL | binds | 
MYT11136 (antibody, V domains shown, MYT9412 HC variant) VH: EVQLVESGGGLVQPGGSLRLSCTASGFSLSTYAMSWVRQAPGKGLEWVGMIYINDNTYYASWAKGRFTISRDTSKNTVYLQMNSLRAEDTAVYFCARDIGISYHIGVSLWGQGTLVTVSS VL: EIVMTQSPSTLSASVGDRVIITCQASQSIGTRLSWYQQKPGKAPKLLIYGASKLATGVPSRFSGSGSGAEFTLTISSLQPDDFATYYCLGEYSYTTTDGIAFGQGTKLTVL | binds | 
MYT11178 (antibody, V domains shown, MYT9412 LC alanine variant) VH: EVQLVESGGGLVQPGGSLRLSCTASGFSLSTYAMSWVRQAPGKGLEWVGMIYINDNTYYASWAKGRFTISRDTSKNTVYLQMNSLRAEDTAVYFCARDIGISYYIGVSLWGQGTLVTVSS VL: EIVMTQSPSTLSASVGDRVIITCQASQSIGTRLSWYQQKPGKAPKLLIYGASKLATGVPSRFSGSGSGAEFTLTISSLQPDDFATYYCLGEYSYTTTDAIAFGQGTKLTVL | binds | 
MYT11152 (antibody, V domains shown, MYT9412 LC variant) VH: EVQLVESGGGLVQPGGSLRLSCTASGFSLSTYAMSWVRQAPGKGLEWVGMIYINDNTYYASWAKGRFTISRDTSKNTVYLQMNSLRAEDTAVYFCARDIGISYYIGVSLWGQGTLVTVSS VL: EIVMTQSPSTLSASVGDRVIITCQASQSIGHRLSWYQQKPGKAPKLLIYGASKLATGVPSRFSGSGSGAEFTLTISSLQPDDFATYYCLGEYSYTTTDGIAFGQGTKLTVL | binds | 
MYT11134 (antibody, V domains shown, MYT9412 HC variant) VH: EVQLVESGGGLVQPGGSLRLSCTASGFSLSTYAMSWVRQAPGKGLEWVGMIYINDNTYYASWAKGRFTISRDTSKNTVYLQMNSLRAEDTAVYFCARDIGIHYYIGVSLWGQGTLVTVSS VL: EIVMTQSPSTLSASVGDRVIITCQASQSIGTRLSWYQQKPGKAPKLLIYGASKLATGVPSRFSGSGSGAEFTLTISSLQPDDFATYYCLGEYSYTTTDGIAFGQGTKLTVL | binds | 
MYT11115 (antibody, V domains shown, MYT9412 HC variant) VH: EVQLVESGGGLVQPGGSLRLSCTASGFSLSTYAMSWVRQAPGKGLEWVGMIYHNDNTYYASWAKGRFTISRDTSKNTVYLQMNSLRAEDTAVYFCARDIGISYYIGVSLWGQGTLVTVSS VL: EIVMTQSPSTLSASVGDRVIITCQASQSIGTRLSWYQQKPGKAPKLLIYGASKLATGVPSRFSGSGSGAEFTLTISSLQPDDFATYYCLGEYSYTTTDGIAFGQGTKLTVL | binds | 
MYT6162 (antibody, V domains shown, IgG) VH: QVQLVQSGPEVKKPGASVKVSCKASGYTFTDYHVHWVRQAPGKRLEWIGVISTYNDYTYNNQDFKGRVTMTRDTSASTAYMELSRLRSEDTAVYYCARGNSYFYALDYWGQGTSVTVSS VL: EIVLTQSPATLSLSPGERATLSCRASESVDSYGKSFMHWYQQKPGQAPRLLIYRASNLESGIPARFSGSGSGTDFTLTISSLEPEDFAVYYCQQSNEDPWTFGGGTKLEIK |  | no binding (tested: 50 nM PTK7)

The next lines start with the values.

binding result [1] | binding result [2] | Binder
binds |  | MYT11108 (antibody, V domains shown, MYT9412 HC variant) VH: EVQLVESGGGLVQPGGSLRLSCTASGFSLSTHAMSWVRQAPGKGLEWVGMIYINDNTYYASWAKGRFTISRDTSKNTVYLQMNSLRAEDTAVYFCARDIGISYYIGVSLWGQGTLVTVSS VL: EIVMTQSPSTLSASVGDRVIITCQASQSIGTRLSWYQQKPGKAPKLLIYGASKLATGVPSRFSGSGSGAEFTLTISSLQPDDFATYYCLGEYSYTTTDGIAFGQGTKLTVL
binds |  | MYT11137 (antibody, V domains shown, MYT9412 HC variant) VH: EVQLVESGGGLVQPGGSLRLSCTASGFSLSTYAMSWVRQAPGKGLEWVGMIYINDNTYYASWAKGRFTISRDTSKNTVYLQMNSLRAEDTAVYFCARDIGISYYHGVSLWGQGTLVTVSS VL: EIVMTQSPSTLSASVGDRVIITCQASQSIGTRLSWYQQKPGKAPKLLIYGASKLATGVPSRFSGSGSGAEFTLTISSLQPDDFATYYCLGEYSYTTTDGIAFGQGTKLTVL
binds |  | MYT11172 (antibody, V domains shown, MYT9412 LC variant) VH: EVQLVESGGGLVQPGGSLRLSCTASGFSLSTYAMSWVRQAPGKGLEWVGMIYINDNTYYASWAKGRFTISRDTSKNTVYLQMNSLRAEDTAVYFCARDIGISYYIGVSLWGQGTLVTVSS VL: EIVMTQSPSTLSASVGDRVIITCQASQSIGTRLSWYQQKPGKAPKLLIYGASKLATGVPSRFSGSGSGAEFTLTISSLQPDDFATYYCLGEYSYTTTHGIAFGQGTKLTVL
binds |  | MYT11150 (antibody, V domains shown, MYT9412 LC variant) VH: EVQLVESGGGLVQPGGSLRLSCTASGFSLSTYAMSWVRQAPGKGLEWVGMIYINDNTYYASWAKGRFTISRDTSKNTVYLQMNSLRAEDTAVYFCARDIGISYYIGVSLWGQGTLVTVSS VL: EIVMTQSPSTLSASVGDRVIITCQASQSHGTRLSWYQQKPGKAPKLLIYGASKLATGVPSRFSGSGSGAEFTLTISSLQPDDFATYYCLGEYSYTTTDGIAFGQGTKLTVL
binds |  | MYT11166 (antibody, V domains shown, MYT9412 LC variant) VH: EVQLVESGGGLVQPGGSLRLSCTASGFSLSTYAMSWVRQAPGKGLEWVGMIYINDNTYYASWAKGRFTISRDTSKNTVYLQMNSLRAEDTAVYFCARDIGISYYIGVSLWGQGTLVTVSS VL: EIVMTQSPSTLSASVGDRVIITCQASQSIGTRLSWYQQKPGKAPKLLIYGASKLATGVPSRFSGSGSGAEFTLTISSLQPDDFATYYCLGEHSYTTTDGIAFGQGTKLTVL
binds |  | MYT11151 (antibody, V domains shown, MYT9412 LC variant) VH: EVQLVESGGGLVQPGGSLRLSCTASGFSLSTYAMSWVRQAPGKGLEWVGMIYINDNTYYASWAKGRFTISRDTSKNTVYLQMNSLRAEDTAVYFCARDIGISYYIGVSLWGQGTLVTVSS VL: EIVMTQSPSTLSASVGDRVIITCQASQSIHTRLSWYQQKPGKAPKLLIYGASKLATGVPSRFSGSGSGAEFTLTISSLQPDDFATYYCLGEYSYTTTDGIAFGQGTKLTVL
binds |  | MYT11153 (antibody, V domains shown, MYT9412 LC variant) VH: EVQLVESGGGLVQPGGSLRLSCTASGFSLSTYAMSWVRQAPGKGLEWVGMIYINDNTYYASWAKGRFTISRDTSKNTVYLQMNSLRAEDTAVYFCARDIGISYYIGVSLWGQGTLVTVSS VL: EIVMTQSPSTLSASVGDRVIITCQASQSIGTHLSWYQQKPGKAPKLLIYGASKLATGVPSRFSGSGSGAEFTLTISSLQPDDFATYYCLGEYSYTTTDGIAFGQGTKLTVL
binds |  | MYT11120 (antibody, V domains shown, MYT9412 HC variant) VH: EVQLVESGGGLVQPGGSLRLSCTASGFSLSTYAMSWVRQAPGKGLEWVGMIYINDNTHYASWAKGRFTISRDTSKNTVYLQMNSLRAEDTAVYFCARDIGISYYIGVSLWGQGTLVTVSS VL: EIVMTQSPSTLSASVGDRVIITCQASQSIGTRLSWYQQKPGKAPKLLIYGASKLATGVPSRFSGSGSGAEFTLTISSLQPDDFATYYCLGEYSYTTTDGIAFGQGTKLTVL
